Positions count from the first letter of the chain named.
T1: human LSR with a V5/His tag fused to the C-terminal, on the LSR-expressing cell strain (human, UniProt Q86X29 1-649)
T1 construct: In panning Lot 1 a mammalian LSR-expressing cell strain was used whose construct is not described; also called human LSR-expressing chicken cell strain; not shown: V5/His tag of vector pcDNA3.1-V5/His-TOPO
T1 sequence: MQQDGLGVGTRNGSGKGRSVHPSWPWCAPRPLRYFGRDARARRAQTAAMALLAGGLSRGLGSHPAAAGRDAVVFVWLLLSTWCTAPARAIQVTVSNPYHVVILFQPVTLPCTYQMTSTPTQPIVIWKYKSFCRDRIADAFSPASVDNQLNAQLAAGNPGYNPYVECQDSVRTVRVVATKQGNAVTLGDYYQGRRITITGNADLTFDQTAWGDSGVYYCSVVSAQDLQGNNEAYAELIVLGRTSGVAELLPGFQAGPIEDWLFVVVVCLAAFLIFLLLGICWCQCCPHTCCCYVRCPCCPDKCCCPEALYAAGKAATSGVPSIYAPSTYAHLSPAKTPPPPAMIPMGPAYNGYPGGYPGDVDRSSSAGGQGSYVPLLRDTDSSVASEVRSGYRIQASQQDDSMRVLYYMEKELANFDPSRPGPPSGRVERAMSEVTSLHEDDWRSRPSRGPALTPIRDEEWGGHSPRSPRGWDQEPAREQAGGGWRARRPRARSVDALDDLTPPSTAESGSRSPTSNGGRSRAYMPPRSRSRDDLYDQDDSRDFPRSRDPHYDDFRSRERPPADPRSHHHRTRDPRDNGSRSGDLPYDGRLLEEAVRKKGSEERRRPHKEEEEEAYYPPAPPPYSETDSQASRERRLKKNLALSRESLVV

T2: human LSR (lipolysis stimulated lipoprotein receptor) (human, UniProt Q86X29 1-649)
T2 construct: Stood on human ovarian cancer cells (RMG-I, OVSAHO, JHOS2, OVISE; endogenous) or on SKOV3-L45 cells made to stably express LSR (construct not described); also called hLSR; human LSR protein (NP_991403.1)
T2 sequence: T1 sequence

B1: SEQ ID NO 6 (scFv phage antibody clone, anti-LSR antibody 1-43 sequence) (scFv)
scFv: AVTLDESGGGLQTPGGALSLVCEASGFDFSSHEMQWVRQAPGKGLEWVAGISGAGSSTRYGSAVQGRATISRDNGQSTVRLQLNNLRAEDTGTYYCARGSLIDAWGHGTEVIVSTGGGGSGGGGSGGGGSDVALTQPASVSANPGETVKITCSGGGSYYGSYYYSWHQQKSPGSAPVTVIYENNQRPSDIPSRFSGSKSGSTATLTITGVQAEDEAVYFCGSYDSSAGLFGAGTTLTV
notes: the phage coat protein fusion is not described; also called 1-43 scFv
B2: SEQ ID NO 5 (scFv phage antibody clone, anti-LSR antibody 1-25 sequence) (scFv)
scFv: AVTLDESGGGLQTPGGALSLVCKASGFDFSSYEMQWVRQAPGKGLEWVTGISGSGSSTRYGSAVKGRATISRDNGQSTVRLQLNNLRAEDTGTYYCARGSTIDAWGHGTEVTVSTGGGGSGGGGSGGGGSDVALTQPASVSANPGETVKITCSGGSSYAGSYYYGWYQQKSPGSAPVTVIYYNDQRPSDIPSRFSGSTSGSTATLTITGVQVEDEAVYICGTYEDSGGVFGAGTTLTV
notes: the phage coat protein fusion is not described; also called 1-25 scFv
B3: SEQ ID NO 4 (scFv phage antibody clone, anti-LSR antibody 27-6 sequence) (scFv)
scFv: AVTLDESGGGLQMPGGALSLVCRASGFDFSSYEMQWIRQAPGKGLEWVAGISGAGSGTRYGSAVKGRATISRDNGQSTVRLQLNNLRAEDTGIYFCARSSNIDAWGHGTEVTVSTGGGGSGGGGSGGGGSDVALTQPASVSANLGGTVKITCSGGGRYAESYYYGWYQQKSPGSTPVTVIYWNDKRPSNIPSRFSGSLSGSTNTLTITGVQVEDEAVYFCGSYEDSRSAFGAGTTLTV
notes: the phage coat protein fusion is not described; also called 27-6 scFv
B4: SEQ ID NO 3 (scFv phage antibody clone, anti-LSR antibody 26-2 sequence) (scFv)
scFv: AVTLDESGGGLQTPGGGLSLVCKGSGFTFSNYEMQWVRQAPGKGLEWVAGISGAGSTTRYGSAVQGRATISRDNGQSTVRLQLNNLRAEDTGTYYCARGSNIDGWGHGTEVIVSTGGGGSGGGGSGGGGSDVALTQPSSVSANPGETVKITCSGGGRYAESYYYSWFQQKSPGSAPVTVIYWNDKRPSNIPSRFSGSLSGSTNTLTITGVRAEDEAVYYCGAYEDSSAGFGAGTTLTV
notes: the phage coat protein fusion is not described; also called 26-2 scFv
B5: anti-LSR mouse/chicken chimeric monoclonal antibody #1-25 (antibody, V domains shown)
VH: AVTLDESGGGLQTPGGALSLVCKASGFDFSSYEMQWVRQAPGKGLEWVTGISGSGSSTRYGSAVKGRATISRDNGQSTVRLQLNNLRAEDTGTYYCARGSTIDAWGHGTEVTVST
VL: ALTQPASVSANPGETVKITCSGGSSYAGSYYYGWYQQKSPGSAPVTVIYYNDQRPSDIPSRFSGSTSGSTATLTITGVQVEDEAVYICGTYEDSGGVFGAGTTLTV
notes: also called No. 1-25; anti-LSR antibody 1-25
B6: anti-LSR mouse/chicken chimeric monoclonal antibody #1-43 (antibody, V domains shown)
VH: B5 VH with K23E, Y32H, T49A, S54A, K65Q, T101L, T112I
VL: ALTQPASVSANPGETVKITCSGGGSYYGSYYYSWHQQKSPGSAPVTVIYENNQRPSDIPSRFSGSKSGSTATLTITGVQAEDEAVYFCGSYDSSAGLFGAGTTLTV
notes: also called No. 1-43; anti-LSR antibody 1-43
B7: anti-LSR mouse/chicken chimeric monoclonal antibody #27-6 (antibody, V domains shown)
VH: B5 VH with T13M, K23R, V37I, T49A, S54A, S57G, T93I, Y95F, G99S, T101N
VL: ALTQPASVSANLGGTVKITCSGGGRYAESYYYGWYQQKSPGSTPVTVIYWNDKRPSNIPSRFSGSLSGSTNTLTITGVQVEDEAVYFCGSYEDSRSAFGAGTTLTV
notes: also called No. 27-6; anti-LSR antibody 27-6
B8: anti-LSR mouse/chicken chimeric monoclonal antibody #9-7 (antibody, V domains shown)
VH: AVTLDESGGGLQTPGGALSLVCKASGFTFSDYQMNWVRQAPSKGLEWVAGINGRSSWTDYGAAVKGRATISRDNGQSTVRLQLNNLRAEDTATYYCARGSSIDAWGHGTEVIVST
VL: ALTQPASVSANPGETVKITCSGGGSYYGSYYYGWYQQKSPGSAPVTMIYNNNNRPSNIPSRFSGSLSGSTNTLTITGVQADEAVYYCGSIDSNIAGVFGAGTTLTV
notes: also called anti-LSR antibody 9-7
B9: anti-LSR mouse/chicken chimeric monoclonal antibody #26-2 (antibody, V domains shown)
VH: AVTLDESGGGLQTPGGGLSLVCKGSGFTFSNYEMQWVRQAPGKGLEWVAGISGAGSTTRYGSAVQGRATISRDNGQSTVRLQLNNLRAEDTGTYYCARGSNIDGWGHGTEVIVST
VL: ALTQPSSVSANPGETVKITCSGGGRYAESYYYSWFQQKSPGSAPVTVIYWNDKRPSNIPSRFSGSLSGSTNTLTITGVRAEDEAVYYCGAYEDSSAGFGAGTTLTV
notes: also called No. 26-2; anti-LSR antibody 26-2

target: T1, human LSR with a V5/His tag fused to …; assay: cell panning of the scFv phage library on the LSR-expressing cell strain, reactivity confirmed by FACS, positive phage clones selected
Protocol: The scFv phage antibody library was added to a non-LSR-expressing cell strain to carry out absorption operation of nonspecific phages, and then was reacted with a LSR-expressing cell strain. In Lot 1, a mammalian cell strain was used and in Lot 2, cell panning was carried out using the chicken lymphoblast-like cell strain used for immunization. After washing with organic solvent, phages specifically binding to the LSR-expressing cell strain were recovered and then *Escherichia coli* were infected with it. Panning was carried out four times and then the reactivity of the library was confirmed by FACS analysis using the LSR-expressing cell strain. Phages from a library of which the reactivity had most increased were cloned, positive clones were selected, and then the sequences of six types of clones were determined (SEQ ID NOs: 1 to 6 and FIG. 9). For cell panning, a method described in "Giordano et al., Nat Med. 2001 November; 7(11): 1249-53" was followed.

| Binder | binding result |
| --- | --- |
| B1 | binds |
| B2 | binds |
| B3 | binds |
| B4 | binds |

target: T2, human LSR (lipolysis stimulated …); assay: FACS on RMG-I cells stained with various antibody concentrations, goat anti-mouse IgG-FITC, fit in GraphPad Prism
Protocol: Then, using an anti-LSR antibody (#1-25 or #9-7), immunohistochemical staining for LSR was carried out according to the ABC method. In the ovary serous adenocarcinoma tissue and the endometrial cancer tissue, LSR was highly expressed at the tumor sites. Immunohistochemical Staining Using Normal Frozen Tissue Array FDA standard human tissue microarrays (T6234701-2, Biochain) were immunohistochemically stained using the anti-LSR antibody #1-25. […] Calculation of Binding Constant Various concentration of various anti-LSR antibodies were reacted with RMG-I cells and they were stained using goat anti-mouse IgG-FITC (Southern Biotech, Birmingham, Ala., USA) and analyzed by a FACSCanto® II cytometer (Becton Dickinson). With regard to the fluorescence intensity of FITC, a KD value was analyzed using GraphPad Prism® Software Version 6.0 for Windows (GraphPad Software Inc., San Diego, Calif., USA). When the binding ability of the made LSR antibodies was analyzed by FACS®, antibodies having a high binding ability were obtained. The following analysis was carried out using two kinds of clones having the highest binding ability in them (FIG. 37B). […] Cell Cycle Analysis Ovarian clear cell adenocarcinoma (RMG-I) was seeded into a 6-well plate at 15,000 cells/well and incubated in a CO_2 incubator at 37° C. overnight. The culture supernatant was discarded and 100 µg/ml anti-LSR antibody or mouse IgG2a diluted with RPMI 1640 medium (containing 1% FBS and 1% penicillin-streptomycin) was added at 2 mL/well for each. After 96 hours, cell cycle analysis was carried out using the Cycle Test Plus® DNA Reagent kits (BD Biosciences). Western Blot Ovarian clear cell adenocarcinoma (RMG-I) was seeded into a 6-well plate at 15,000 cells/well and incubated in a CO_2 incubator at 37° C. overnight. The culture supernatant was discarded and 100 µg/ml anti-LSR antibody or mouse IgG2a diluted with RPMI 1640 medium (containing 1% FBS and 1% penicillin-streptomycin) was added at 2 mL/well for each.

| Binder | Kd |
| --- | --- |
| B5 | 2.03 nM |
| B6 | 24.6 nM |
| B7 | 4.29 nM |
| B8 | 2.52 nM |
| B9 | 4.04 nM |
